Assay: yeast display, Sf9 membrane polyspecificity reagent, FACS + sequencing; frameworks hold sequencing errors
How it was run: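 In a synthetic yeast display library (Saccharomyces cerevisiae BJ5465), nanobody expression was induced with galactose for 36–48 hours. FACS gates were set low and high (top ~1%) using anti-HA fluorescence for expression and streptavidin fluorescence for binding of the Sf9 membrane reagent. Each polyreactivity label is drawn from the gate of origin.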

Sequence: QVQLVESGGGLVQAGGSLRLSCAASGRIFKYYARGGYRQAPGKERELVAAISGSGGSTFYADSVKGRFTISRDNAKNTVYLQMNSLKPEDTAVYYCNADEVVWGYNYWGQGTQVTVSS
- polyreactivity (PSR sort gate): low polyreactivity

Sequence: QVQLVESGGGLVQAGGSLSLSCAASGSTFAYYAMGWSRQAPGKERELVAGITWTGGSTYYADSVKGRFTISRDNAKNTVYLQMNSLKPEDTAVYYCAVTYPYGYEYDHWGQGSQVTVSS
- polyreactivity (PSR sort gate): low polyreactivity

Sequence: QVQLVESGGGLDQEGGSLRLSCAASGNIFSSYLMGWYRQAPGKEREVVAAISSRGGSTYYADSVKGRFTISRDNAKNSVYLQMNSLKPEDTAVYYCAARTGRYYRRYDYWGQGTQVTLSS
- polyreactivity (PSR sort gate): high polyreactivity

Sequence: QVQLVESGGGLVQAGGSLRISCAASGSTFSPYAMGWYRQAPRKERELFAAISASGGGTYYADSVKGRFTISRDNAKNTVYLQMNSLKPEDTAVYYCARDYGWDISKGRYGYWGQGTQVTVSS
- polyreactivity (PSR sort gate): low polyreactivity

Sequence: QVQLVESGGGLVQAGGSLRLSCAASGSTFWSYAMGWYRQAPGKERELVAVITGSDGRTFYADSVKGRFTISRDNAKNTVYFQINSLKPEDTAVYYCAADAVFRATRDDRSTSEDDYWGQGTQVTVSS
- polyreactivity (PSR sort gate): low polyreactivity

Sequence: QVQLVESGGGLVHAGGSLRLSCAASGRTFRLYVMGWYRQAPGKERELVASITRGTGTDYADSVKGRFRISRDNAKNTVYLQMNSLKPEDTAVYYCNVKYGQPIYGEFDYWGQGTQVTVSS
- polyreactivity (PSR sort gate): low polyreactivity

Sequence: QVQLVESGGGLVQAGGSLRLSCAASGRTFYYNAMGWYRQAPGKERELVAAISSRGGNTYYADSVKGRFTISRDNAKNTVYYQMNSLKPEDTAVYYCARRYPYPAYEYGYWGQGTQVTVSS
- polyreactivity (PSR sort gate): high polyreactivity

Sequence: QVQLVESGGRLVQAGGSLRLSCAASGFILTSYAMGWYRQAPGKERELVAAISSRGGRTYYADSVKGRFTISRDNAKNTVYLQMNSLKPEDTAVYYCNAVVYVVGDFDYWGQGTQVTGSS
- polyreactivity (PSR sort gate): high polyreactivity

Sequence: QVQLVESGGGLVQAGGSLRLSCAASGSTFFTNAMGWYRQAPGKERELVATITWSGGSTYADSVKGRFTISRDNAKNTVYLQMNSLKPEDTAVFYCAAESSSYWGDQGGALWLYDYWGQGTQVTVSS
- polyreactivity (PSR sort gate): low polyreactivity

Sequence: QVKLVESGGGLVQAGGSLRLSCAASGSTFHVYAMGWYRQEPGKESELVAGITSSGYSTYYADSVKGRFTISRDNAKNTVYLKMNSLKPEDTAFYYCNADIRGPYYYHRYDYWGQGTQVTVSS
- polyreactivity (PSR sort gate): low polyreactivity

Sequence: QVQLVESGGGLVQAGGSLRLSCAASGIIFARNGMGWYRPAPGKERELVAAISSGGRKYYADSVKGRFTISRDNAKNTVYLQMNSLKPEDTAVYYCNALGWYLRGDYWGQGTQVTVSS
- polyreactivity (PSR sort gate): high polyreactivity

Sequence: QVQLVESGGGLVQAGGSLRLSCAASGFTFYDYAMGLYRQAPGKERELVAGISRDGGTTYYSDSVKGRFTISRDNAKNTVYLQMNSLKPEDTAVYYCAVDFLDWYQDYYITYDYWGQGSQVTVSS
- polyreactivity (PSR sort gate): low polyreactivity

Sequence: QVQLVESGGGLVQAGGSLRLSCAASGSIYRYAMGWYRQAPGKERELVASISRRGGSTYYADSVKGRFTISRDNAKNTVYLQMNSLKPEDTAVYSCNAYGYSFGYDYWGQGTQVTVSS
- polyreactivity (PSR sort gate): high polyreactivity

Sequence: QAQLQESGGSLVQAGGGLRLSCAASGYISVGSVMGWYRQAPSKERELVASIDQGANTNYADSVKGRFTISRDNAKNYVYLQMNSLKPEDTAVYYCATETTYILNYWGQGTQVTVSS
- polyreactivity (PSR sort gate): low polyreactivity

Sequence: QFHLVDSGGGLVQAGCSLRLSCAASGFTFNSYAMGWYRQAPGKERELVASITRGGGSTYYADSVKGRFTISRDNAKNTVYLKMNSLKPEDTAVYYCTARVRRRGGSFNYWGQGTQVIVSS
- polyreactivity (PSR sort gate): high polyreactivity

Sequence: QVQLVESGGRLVQAGGSLRLSCASSGSTFVPNDMGLYRQAPGKERELVAAISRSGDDTYYADSVKGRFTISRDNAKNNVYLQMNSLKPVYTAVYYCAASAGYAYNYWGQGTQVTVSS
- polyreactivity (PSR sort gate): low polyreactivity

Sequence: QVQLVESGGGLVQAGGSLRLSCAASGFTFGGNVMGWYSQAPGKERELVAAISGAGSKYYADSVKGRFTISRDNAKNTVNLQMNSLKPEDTAVNYCAADDVARYLSGYDYWGQGTQVTVSS
- polyreactivity (PSR sort gate): low polyreactivity

Sequence: QVQLVESGGGLVQAGGSLRLSCAASGRIFGPYVMGWYRQAPGKERDFVAAISRRTGSTYYADSVKGRFTISRDNAKNTVYLQMNSLKPEDTAVYYCAATYYFSHVVGYGYWGQGTQVTVSS
- polyreactivity (PSR sort gate): high polyreactivity

Sequence: QVQLVESGGGLVQAGGSLRLSCAASGRTLRGNAMGWYRQAPGKERELVAVITRRGGSTYYADSVKGRFTISRDNAKNTFYLQMNSLKPEDTAVYYCAAVPYYYKYDYWGQGTQVTVSS
- polyreactivity (PSR sort gate): high polyreactivity

Sequence: QVQLVESGGGLVQAGGSLRLSCAASGSIFSTYAIVWYRQAPGKERELVAAISVSGGRTYYADSVKGRFTISRDNAKYTVYLQMNSLKPEDTAVYYCNAYPFWRDYDYWGQGTQVTVSS
- polyreactivity (PSR sort gate): high polyreactivity

Sequence: QFQLVESGGGLLQAGGSLRLSCADSGFIFCEYAMGWYRQAPGKERELVAAITWSGGRTYYADSVKGRFTISRDNAKNTVYLQMNSLKTEDTAVYYCSAYGSFWYAGFGYWGQGTQVTVSS
- polyreactivity (PSR sort gate): low polyreactivity

Sequence: QVQLVESGGGLVQAGGSLRLSCAASGSIFNDNVMGWYRPAPGKERELVAGISRSGTRTYYADSVKGRFTISRDNAKNTVYLQMNSLKPEDNAVYYCAAAYGQARRYNGSQYGSWGQGTQVTVSS
- polyreactivity (PSR sort gate): high polyreactivity

Sequence: QVQLVESGGGLVQAGGSLRLSCAASGRIFGVYAMGWYRQAPGKERELVATIRSSGTRTNYADSVKGRFTISRDNAKNTVYLQMNSLKPEDTAVYYCAAGGRPYKLDFTRSDYWGQGTQVTVSS
- polyreactivity (PSR sort gate): low polyreactivity

Sequence: QVQLVESGGGIVQAGGSLRLSCAASGSTFSSYAMGWYRQAPGKERELVAGITNSGGSTYYADSVKGRFTISRDNAKNTVYLQMNSLKPEDTAVYYCAAFPRTYSGYYYWGQGTQVTVSS
- polyreactivity (PSR sort gate): high polyreactivity

Sequence: QVQLVESGGGLVQAGGSLRLSCAASGITLGYYAMGWYRQAPGKERELVAAISYRGGNTYYADSVKGRFTISRDNAMKTVYLQMNSLKPEDSAVYYCAAYDEYYGYDYWGQGTQVTVSS
- polyreactivity (PSR sort gate): low polyreactivity

Sequence: QVQLVESGGGLVQAGGSLRLSCAASGRTFYYYAMGWYRQAPGKERELVASITFSGGRTYYADSVKGRFTISRDNAKNTVYLQMNSLKPEDTAVYYFARPYYGRYYPNYGVTGVDYWGQGTQVTVSS
- polyreactivity (PSR sort gate): high polyreactivity

Sequence: QVQLVESGGGLVQAGGSLRLSCAASGSIFSYNGMGWYRQAPGKERELVATISASSVTTYYADSVKGRFTFSRDNAMNTVYLQMNSLKPEDTAVYYCARDAYSVYYYVFLHWEYDYWGQGTQVTVSS
- polyreactivity (PSR sort gate): high polyreactivity

Sequence: QVQLVESAGGLVQAGGSLRLSCAASGITFKYNAMGWYRQAPGKERELVAAISKGGGSTYYADSVKGRFTISRDNAKNTVYLQMNSLKPEDTAVYYCAARRWYRFDYWGQGTQVTVSS
- polyreactivity (PSR sort gate): high polyreactivity

Sequence: QVQLVETGGGLVQAGGSLRLSCAASGSIFGPYAMAWYRQAPGKERELVAVISRSGGSTYYADSVKGRFTISRDNAKNTVYLQMNSLKPEDTAVYYCAAYRGPRADYYWGQGTQVTVSS
- polyreactivity (PSR sort gate): high polyreactivity

Sequence: QVQLVESGGGLVQAGGSLRLSCAASGSIIGPYAMGWYRQAHGKERELVAAITFSGGSTYYADSVKGRFTISRDNSKNTVYLQMNSLKPEDTAVYYCAAEYWYYTGYDYWGQGTQVTVSS
- polyreactivity (PSR sort gate): high polyreactivity

Sequence: QVQLVESGRGLVQAGGSLRLSCAASGRIFFKYAMGRYRPAPGKERELVAAISSSGGRTSYADSVKGRFTISRDNAKNTVYLQMNSLKPEDTAVYYCNVKPSARGSPLYDYWGQGTQVTVSS
- polyreactivity (PSR sort gate): high polyreactivity

Sequence: QVQLVESGGGLVQAGGSLRLSCAASGSIFDRNAMGWYRQAPGKERELVAAISRSSGNTYYADSVKGRFTISRDNAKNTVYLQMNSLKPEDTAVYYCAAKPTYPKRYNYWGQGTQVTVSS
- polyreactivity (PSR sort gate): high polyreactivity

Sequence: QVQLVETGGGLVQAGGSLRISCAASGLTFYLYAMGWYRQSPGKERELVAAISSTGITNYADSVKGRFTISRDNAKNTVYLQMNSLNPEDTAVYYCNADYHPFFFEFNDWGQGTQVTVSS
- polyreactivity (PSR sort gate): high polyreactivity

Sequence: QVKLVESGGGLVQAGGSLRLSCAASGLIFDTYAMGWYRQAHGKERELVADITLSGGSTYYADSLKGRFTISRDTAKNTVYLQMNSLKPVDTAVYYCAADSVSLFYWDQRYPDEYDYWGQGTQVTVSS
- polyreactivity (PSR sort gate): low polyreactivity

Sequence: QVQLEESGGGLVQAGGSLRLSCAASGSTIPRNAMGWYRQAPGKERELVAAITSGGSTNYADSVKGRFTISRDNAKNTVYLQMNSLKPEDTSVYYCAADEQVNTQYVVWGDYWGQGTQVTVSS
- polyreactivity (PSR sort gate): low polyreactivity

Sequence: QVLLVESRGALVQAGGSLRLSCAASGSTFYWYAMGRYRQAPGKERELVASITRSGVRTYYADSVKGRFTISRDNGKNTVYLQMNSLKPEDTAVYYCAAERYYFPRSFRYGYWGQGTQVTVSS
- polyreactivity (PSR sort gate): low polyreactivity

Sequence: QVQLVESGGGLVQAGGSHRLSCAAYGSTFFPNCMGWYRQAPGKERELVAAITSGGSTYADSVKGRFTISRDNAKNTVYLQMNSLKQEDTAFYYCAADSRQGFLLYGYWGQATQVTVSS
- polyreactivity (PSR sort gate): low polyreactivity

Sequence: QVQIVESGGGLVQAGGSLRLSCAAYGRTFSYYTMGWYRQAPGKERELVARISNRGTNTYYADSEKGRFTISRDNAKNTVYLQMNSLKPEDPAVYYCAKYYSTSIVGYDSWGQGTQVTVSS
- polyreactivity (PSR sort gate): low polyreactivity

Sequence: QVQLVESGGGLVQAGGSLRLSCAASGFTFWRNTMGWYRQAPGKERELVAGISGSGGSTYYADSVKGRFTISRDNAKNTVYLQMNSLKPEDTAVYYCAVRGGYTWPTYNYWGQGTQVTVSS
- polyreactivity (PSR sort gate): high polyreactivity

Sequence: QVQLVESGGCLVQAGGSLRLSWDASGSIFLGYTIGWYRQAPGKERELVAAINSSGGSTYYAYSVKGRFTISRDNAKNTVFLQMNSLKPDDTAVYYCADANSILLFDSWGQGTQVTVSS
- polyreactivity (PSR sort gate): low polyreactivity

Sequence: QVQHVESGGGIVQAGGSLRLSCAASGIIFSDYAMGWYRQARGKERELVATITRSVRTSYADSVKGRFTISRDNAKNTVYLQMNSLKPEDTAVYYCYADVVGAVIAYDYWGQGTQVTVSS
- polyreactivity (PSR sort gate): low polyreactivity

Sequence: QVQLVESGGGLVQAGGSLRLSCAASGRIFAYYAMGWYRQAPGKERELVAAINRSGVRTYYADSVKGRFTISRDNAMNTVYFQINSLKPEDTAVYYCAAYVVGGEGDYWGQGTQVTVSS
- polyreactivity (PSR sort gate): high polyreactivity

Sequence: QVQLEEAGGGLVQAGGSLRLSCAASARIIARYAMGWYRQAPGKERELVAAITGSGGSTYYADSVKGLFTISRDHANNTVYLQMNCLKPEDTAVYYCAARSVYTYYRLDYWGQGTQVTVSS
- polyreactivity (PSR sort gate): high polyreactivity
